In patent US20250270323A1 (NEXTPOINT THERAPEUTICS, published 2025):

T1: biotinylated human HHLA2-Fc (human, UniProt Q9UM44 23-344, limits assumed, biotinylated (sites not given))
T1 construct: It may be the same protein as m8 with biotin added; not shown: Fc part
T1 sequence (looked up): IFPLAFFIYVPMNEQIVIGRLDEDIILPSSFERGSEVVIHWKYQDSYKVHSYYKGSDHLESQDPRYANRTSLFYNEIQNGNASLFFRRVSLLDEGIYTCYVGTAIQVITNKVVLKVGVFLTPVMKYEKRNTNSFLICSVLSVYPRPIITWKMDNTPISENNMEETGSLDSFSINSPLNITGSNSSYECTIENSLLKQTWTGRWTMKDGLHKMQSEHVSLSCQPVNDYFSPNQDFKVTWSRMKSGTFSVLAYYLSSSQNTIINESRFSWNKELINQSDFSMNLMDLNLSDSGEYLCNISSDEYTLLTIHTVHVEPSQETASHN

T2: recombinant HHLA2-Fc (UniProt Q9UM44 23-344, limits assumed)
T2 construct: Antigen in solution in the Octet assay; also called HHLA2-Fc antigen; not shown: Fc part
T2 sequence (looked up): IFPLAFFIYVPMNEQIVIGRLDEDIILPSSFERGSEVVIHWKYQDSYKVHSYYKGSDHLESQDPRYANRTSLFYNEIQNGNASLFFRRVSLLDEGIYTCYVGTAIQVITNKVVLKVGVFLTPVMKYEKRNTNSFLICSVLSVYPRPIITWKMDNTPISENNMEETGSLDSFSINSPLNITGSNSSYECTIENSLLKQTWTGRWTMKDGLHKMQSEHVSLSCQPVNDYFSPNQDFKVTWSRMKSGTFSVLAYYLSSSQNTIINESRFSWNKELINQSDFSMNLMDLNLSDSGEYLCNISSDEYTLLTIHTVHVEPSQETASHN

T3: recombinant HHLA2-His (UniProt Q9UM44 23-344, limits assumed)
T3 construct: Analyte in the Biacore assay; also called HHLA2-His analyte; not shown: His tag
T3 sequence (looked up): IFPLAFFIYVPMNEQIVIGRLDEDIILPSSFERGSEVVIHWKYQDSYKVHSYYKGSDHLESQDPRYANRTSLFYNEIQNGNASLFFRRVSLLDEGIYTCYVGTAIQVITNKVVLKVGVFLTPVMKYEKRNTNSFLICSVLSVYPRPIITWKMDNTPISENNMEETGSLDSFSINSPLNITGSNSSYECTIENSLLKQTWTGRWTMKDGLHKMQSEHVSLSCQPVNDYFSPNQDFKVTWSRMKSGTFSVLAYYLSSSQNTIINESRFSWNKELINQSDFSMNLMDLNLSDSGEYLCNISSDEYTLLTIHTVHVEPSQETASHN


What was measured:
[1] = molecular target: T1, biotinylated human HHLA2-Fc; assay: flow cytometry blocking assay; 10 ug/mL control IgG with 4 ug/mL biotinylated human HHLA2-Fc, added to 300.19 KIR3DL3 cells
[2] = molecular target: T1, biotinylated human HHLA2-Fc; assay: flow cytometry blocking assay; HHLA2-Fc binding to 300.19 KIR3DL3 cells with 10 ug/mL control IgG, against antigen only
[3] = molecular target: human HHLA2 over-expressed on 300.19 mouse pre-B leukemic cells (human) (UniProt Q9UM44); assay: flow cytometry; 10 ug/mL control IgG with 4 ug/mL biotinylated human TMIGD2-Fc, added to 300.19 HHLA2 cells
[4] = molecular target: human HHLA2 over-expressed on 300.19 mouse pre-B leukemic cells (human) (UniProt Q9UM44); assay: flow cytometry; 15 ug/ml antibody on 300.19-human HHLA2 cells, PE-conjugated anti-human secondary antibody
[5] = molecular target: human HHLA2 over-expressed on 300.19 mouse pre-B leukemic cells (human) (UniProt Q9UM44); assay: flow cytometry; TMIGD2-Fc binding to 300.19 HHLA2 cells with 10 ug/mL control IgG, against antigen only
[6] = molecular target: T1, biotinylated human HHLA2-Fc; assay: flow cytometry blocking assay; HHLA2-Fc binding to 300.19 KIR3DL3 cells with 10 ug/mL IgG, against antigen only
Description: The ability of the anti-HHLA2 antibodies to block binding of HHLA2 to KIR3DL3 and enhance binding of HHLA2 to TMIGD2 was investigated. […] Alexa Fluor 633 conjugated streptavidin was added as a secondary detection reagent.

[7] = molecular target: human HHLA2 over-expressed on 300.19 mouse pre-B leukemic cells (human) (UniProt Q9UM44); assay: flow cytometry; 10 ug/mL IgG with 4 ug/mL biotinylated human TMIGD2-Fc, added to 300.19 HHLA2 cells; streptavidin-Alexa Fluor 633; binding is enhanced
recombinant HHLA2-Fc = molecular target: T2, recombinant HHLA2-Fc; assay: BLI (Octet, ForteBio); IgG captured on AHC sensor, 100 nM HHLA2-Fc in solution; avid
Excerpt: The avid affinity of the anti-HHLA2 antibodies for recombinant HHLA2-Fc was investigated. The Octet system from ForteBio was used to measure avid affinity of the anti-HHLA2 antibodies for recombinant HHLA2-Fc.

[8] = molecular target: human HHLA2 over-expressed on 300.19 mouse pre-B leukemic cells (human) (UniProt Q9UM44); assay: flow cytometry; TMIGD2-Fc binding to 300.19 HHLA2 cells with 10 ug/mL IgG, against antigen only; binding is enhanced
[9] = molecular target: T1, biotinylated human HHLA2-Fc; assay: flow cytometry blocking assay, antibody titration: binding of human HHLA2-Fc to 300.19 cells over-expressing human KIR3DL3 (blocked partner), gMFI (anti-SA-APC)
[10] = molecular target: human HHLA2 over-expressed on 300.19 mouse pre-B leukemic cells (human) (UniProt Q9UM44); assay: flow cytometry on 300.19 cells over-expressing human HHLA2, antibody titration, gMFI (aHu-APC)
Target sequence in this assay (Q9UM44 23-414): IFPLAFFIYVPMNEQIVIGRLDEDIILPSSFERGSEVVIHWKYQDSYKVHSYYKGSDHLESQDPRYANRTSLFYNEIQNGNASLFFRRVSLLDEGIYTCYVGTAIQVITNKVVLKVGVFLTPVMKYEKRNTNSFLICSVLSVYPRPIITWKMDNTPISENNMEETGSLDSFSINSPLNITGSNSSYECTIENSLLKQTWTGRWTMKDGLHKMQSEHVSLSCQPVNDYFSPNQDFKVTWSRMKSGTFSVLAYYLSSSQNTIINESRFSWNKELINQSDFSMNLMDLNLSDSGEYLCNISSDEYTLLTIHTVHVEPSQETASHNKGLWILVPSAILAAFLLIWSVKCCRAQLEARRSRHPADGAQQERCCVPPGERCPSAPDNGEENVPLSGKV

recombinant HHLA2-His = molecular target: T3, recombinant HHLA2-His; assay: SPR (Biacore, Cytiva); antibody captured on CM5 chip, HHLA2-His as analyte; monovalent
Description: Monovalent affinity was determined by capturing each antibody on an CM5 chip, followed by various concentrations of the HHLA2-His analyte.

[11] = molecular target: human HHLA2 over-expressed on 300.19 mouse pre-B leukemic cells (human) (UniProt Q9UM44); assay: flow cytometry, antibody titration: binding of human TMIGD2-Fc (enhanced ligand) to 300.19 cells over-expressing human HHLA2, % TMIGD2-Fc binding normalized to isotype

Molecule	300.19-human HHLA2 cells FOB (fold over background) (fold over background) [4]	300.19-human HHLA2 cells MFI [4] [MFI]	IC50 (read off the curve) [9] [µg/mL]	EC50 (read off the curve) [10] [µg/mL]	Kd (recombinant HHLA2-His) [nM]	koff (recombinant HHLA2-His) [s⁻¹]	kon (recombinant HHLA2-His) [M⁻¹ s⁻¹]	also measured
Isotype control (antibody)	22	3290	–	–	–	–	–	Human HHLA2-Fc Binding MFI for 300.19 KIR3DL3 cells [1]: 6990 MFI; Antigen Binding MFI Ratio (IgG blocked/antigen only) [2]: 0.9; Human TMIGD2-Fc Binding MFI for 300.19 HHLA2 cells [3]: 943 MFI; Antigen Binding MFI Ratio (IgG blocked/antigen only) [5]: 1.6
Ab-60665 (antibody, human IgG4 S228P, kappa, V domains shown, tested as IgG) VH: QVQLVQSGAEVKKPGSSVKVSCKASGGTSSNYAISWVRQAPGQGLEWMGGIIPIFGTANYAQKFQGRVTITADESTSTAYMELSSLRSEDTAVYYCARSGTIWHDIWGQGTMVTVSS VL: EIVLTQSPATLSLSPGERATLSCRASQSVSSYLAWYQQKPGQAPRLLIYDSSNRATGIPARFSGSGSGTDFTLTISSLEPEDFAVYYCQQVVHWPPTFGGGTKVEIKR	820	115000	–	–	–	–	–	Antigen Binding MFI Ratio (IgG blocked/antigen only) [6]: 0 ratio; Human TMIGD2-Fc Binding MFI for 300.19 HHLA2 cells [7]: 1860 MFI; Kd (recombinant HHLA2-Fc): 0.971 nM; koff (recombinant HHLA2-Fc): 0.000189 s⁻¹; kon (recombinant HHLA2-Fc): 194000 M⁻¹ s⁻¹; Antigen Binding MFI Ratio (IgG blocked/antigen only) [8]: 3.1
Ab-65890 (antibody, human IgG1, V domains shown, tested as IgG) VH: QVQLVQSGAEVKKPGASVKVSCKASGYTFNSYRMHWVRQAPGQRLEWMGSIPAGTGNTVYSQKFQGRVTITRDTSASTAYMELSSLRSEDTAVYYCARDRGGYYYDSWDDWGQGTLVTVSS VL: DIQMTQSPSSLSASVGDRVTITCRASQSISSYLNWYQQKPGKAPKLLIYGASSLQSGVPSRFSGSGSGTDFTLTISSLQPEDFATYYCQQVPFEPPTFGGGTKVEIK	–	–	~1	0.1	0.765	9.28e-05	123000	–
Ab-65886 (antibody, human IgG1, kappa, V domains shown, tested as IgG) VH: QVQLVQSGAEVKKPGASVKVSCKASGYTFEKYAMHWVRQAPGQRLEWMGFIPAGTGNTKYSQKFQGRVTITRDTSASTAYMELSSLRSEDTAVYYCARDRGGYYYDSWDDWGQGTLVTVSS VL: DIQMTQSPSSLSASVGDRVTITCRASQSISSYLNWYQQKPGKAPKLLIYGASSLQSGVPSRFSGSGSGTDFTLTISSLQPEDFATYYCQQVAFTPPTFGGGTKVEIKR	–	–	~1	0.1	11.3	0.00688	609000	–
Ab-65887 (antibody, human IgG1, kappa, V domains shown, tested as IgG) VH: QVQLVQSGAEVKKPGASVKVSCKASGYTFEQYAMHWVRQAPGQRLEWMGFIPAGTGNTKYSQKFQGRVTITRDTSASTAYMELSSLRSEDTAVYYCARDRGGYWYDSWDDWGQGTLVTVSS VL: DIQMTQSPSSLSASVGDRVTITCRASQSISSYLNWYQQKPGKAPKLLIYGASSLQSGVPSRFSGSGSGTDFTLTISSLQPEDFATYYCQQVVFTPPTFGGGTKVEIKR	–	–	~1	0.1	16.5	0.0148	900000	–
Ab-65889 (antibody, human IgG1, kappa, V domains shown, tested as IgG) VH: QVQLVQSGAEVKKPGASVKVSCKASGYTFASYKMHWVRQAPGQRLEWMGDIPAGTGNTHYSQKFQGRVTITRDTSASTAYMELSSLRSEDTAVYYCARDRGGYYYDSWDDWGQGTLVTVSS VL: DIQMTQSPSSLSASVGDRVTITCRASQSISSYLNWYQQKPGKAPKLLIYGASSLQSGVPSRFSGSGSGTDFTLTISSLQPEDFATYYCQQVPFEPPTFGGGTKVEIKR	–	–	~1	0.1	0.894	0.000114	128000	EC50 (read off the curve) [11]: 0.1 µg/mL
Ab-65885 (antibody, human IgG1, kappa, V domains shown, tested as IgG) VH: QVQLVQSGAEVKKPGASVKVSCKASGYTFDSYKMHWVRQAPGQRLEWMGYIPAGTGNTKYSQKFQGRVTITRDTSASTAYMELSSLRSEDTAVYYCARDRGGYYYDSWDDWGQGTLVTVSS VL: DIQMTQSPSSLSASVGDRVTITCRASQSISSYLNWYQQKPGKAPKLLIYGASSLQSGVPSRFSGSGSGTDFTLTISSLQPEDFATYYCQQVAFTPPTFGGGTKVEIKR	–	–	~1	0.1	5.82	0.00205	325000	–
Ab-60638 (antibody, human IgG4 S228P, kappa, V domains shown, tested as IgG) VH: QVQLVQSGAEVKKPGASVKVSCKASGYTFTSYAMHWVRQAPGQRLEWMGWINAGTGNTKYSQKFQGRVTITRDTSASTAYMELSSLRSEDTAVYYCARDLPHRGAFDPWGQGTLVTVSS VL: EIVLTQSPGTLSLSPGERATLSCRASQSVSSDYLAWYQQKPGQAPRLLIYGASSRATGIPDRFSGSGSGTDFTLTISRLEPEDFAVYYCQLYGSAPRTFGGGTKVEIKR	394	46900	–	–	–	–	–	Antigen Binding MFI Ratio (IgG blocked/antigen only) [6]: 0 ratio; Human TMIGD2-Fc Binding MFI for 300.19 HHLA2 cells [7]: 2730 MFI; Kd (recombinant HHLA2-Fc): 1.42 nM; koff (recombinant HHLA2-Fc): 0.000469 s⁻¹; kon (recombinant HHLA2-Fc): 330000 M⁻¹ s⁻¹; Antigen Binding MFI Ratio (IgG blocked/antigen only) [8]: 4.5
